From patent US20210324035A1 (University of California, published 2021)

How the values were obtained:
[1] = molecular target: T1, HLA-A*02:01/NY-ESO-1 157-165 (…) (Homo sapiens; human); assay: flow cytometry, dextramer MFI on CD8+ Jurkat against Jurkat cells
[2] = molecular target: T1, HLA-A*02:01/NY-ESO-1 157-165 (…); assay: flow cytometry, A*02:01/NY157-165 dextramer staining of TCR-transduced human T cells from the blood of NSG mice
[3] = molecular target: T1, HLA-A*02:01/NY-ESO-1 157-165 (…); assay: flow cytometry, dextramer MFI on TCR-transduced Jurkat cells
[4] = molecular target: T2, NY-ESO-1 (CTAG1B) peptide on HLA-A*02:01 (human); assay: value cited from Robbins et al. 2008 (ref 37); not measured in this filing
T2 peptide: SLLMWITQC

[5] = molecular target: HLA-B*07:02/NY-ESO-1 60-72 (Homo sapiens; human); assay: cell-based or functional assay
[6] = molecular target: HLA-B*18:01/NY-ESO-1 88-96 (Homo sapiens; human); assay: cell-based or functional assay
[7] = molecular target: T1, HLA-A*02:01/NY-ESO-1 157-165 (…); assay: cell-based or functional assay
[8] = molecular target: T2, NY-ESO-1 (CTAG1B) peptide on HLA-A*02:01; assay: multimer staining
[9] = molecular target: T3, NY-ESO-1 (CTAG1B) peptide on HLA-B*07:02 (human); assay: cytokine release
T3 peptide: APRGPHGGAASGL

[10] = molecular target: T3, NY-ESO-1 (CTAG1B) peptide on HLA-B*07:02; assay: multimer staining
[11] = molecular target: T2, NY-ESO-1 (CTAG1B) peptide on HLA-A*02:01; assay: cytokine release
[12] = molecular target: T4, NY-ESO-1 (CTAG1B) peptide on HLA-B*18:01 (human); assay: multimer staining
T4 peptide: LEFYLAMPF

## 1G4 TCR, murinized (murine TCR constant domains)
[1]
  fold increase of dextramer binding in the presence of CD8: 3.8 fold
[2]
  percent of transduced T cells dextramer+: 90%
[3]
  fold increase of the intensity of dextramer binding, muTCR over parental huTCR: 1.4 fold

## 1G4 TCR
[4]
  Kd: 9.3 µM

B1: 1E4 TCR, murinized (murine TCR constant domains) (TCR, V domains shown)
V domain 1: KQEVTQIPAALSVPEGENLVLNCSFTDSAIYNLQWFRQDPGKGLTSLLLIQSSQREQTSGRLNASLDKSSGRSTLYIAASQPGDSATYLCAVSTAYSGGGADGLTFGKGTHLIIQP
V domain 2: DTGVSQNPRHKITKRGQNVTFRCDPISEHNRLYWYRQTLGQGPEFLTYFQNEAQLEKSRLLSDRFSAERPKGSFSTLEIQRTEQGDSAMYLCASSPPTVRVYGYTFGSGTRLTVVE
[5]
  IL-2 production of TCR-transduced Jurkat cells co-incubated with cognate target cells; fold increase of murinized over fully human TCR: 1.6 fold

B2: 2B8 TCR, murinized (murine TCR constant domains) (TCR, V domains shown)
V domain 1: GQQVMQIPQYQHVQEGEDFTTYCNSSTTLSNIQWYKQRPGGHPVFLIQLVKSGEVKKQKRLTFQFGEAKKNSSLHITATQTTDVGTYFCADPNFGNEKLTFGTGTRLTIIP
V domain 2: EAQVTQNPRYLITVTGKKLTVTCSQNMNHEYMSWYRQDPGLGLRQIYYSMNVEVTDKGDVPEGYKVSRKEKRNFPLILESPSPNQTSLYFCASSLNPFATNEKLFFGSGTQLSVLE
[6]
  IL-2 production of TCR-transduced Jurkat cells co-incubated with cognate target cells; fold increase of murinized over fully human TCR: 18.6 fold

B3: 9D2 TCR, murinized (murine TCR constant domains) (TCR, V domains shown)
V domain 1: QKEVEQNSGPLSVPEGAIASLNCTYSDRGSQSFFWYRQYSGKSPELIMFIYSNGDKEDGRFTAQLNKASQYVSLLIRDSQPSDSATYLCAVDDKIIFGKGTRLHILP
V domain 2: DAGVIQSPRHEVTEMGQEVTLRCKPISGHDYLFWYRQTMMRGLELLIYFNNNVPIDDSGMPEDRFSAKMPNASFSTLKIQPSEPRDSAVYFCASSLGQPSTDTQYFGPGTRLTVLE
[7]
  IFN-γ secretion of TCR-transduced primary T cells co-incubated with peptide-pulsed A2+ K562 cells; functional sensitivity relative to 4A2: 10 fold

B4: 3A1 TCR, murinized (murine TCR constant domains) (TCR, V domains shown)
V domain 1: GQQLNQSPQSMFIQEGEDVSMNCTSSSIFNTWLWYKQDPGEGPVLLIALYKAGELTSNGRLTAQFGITRKDSFLNISASIPSDVGIYFCAGFLDSNYQLIWGAGTKLIIKP
V domain 2: EAQVTQNPRYLITVTGKKLTVTCSQNMNHEYMSWYRQDPGLGLRQIYYSMNVEVTDKGDVPEGYKVSRKEKRNFPLILESPSPNQTSLYFCASASGYRTDTQYFGPGTRLTVLE
notes: Full-length TCR on transduced Jurkat cells or primary human T cells; Human variable regions with mouse constant regions; also called 3A1 muTCR
[1]
  fold increase of dextramer binding in the presence of CD8: 1.9 fold

B5: 3A1 TCR (TCR, V domains shown)
Valpha: GQQLNQSPQSMFIQEGEDVSMNCTSSSIFNTWLWYKQDPGEGPVLLIALYKAGELTSNGRLTAQFGITRKDSFLNISASIPSDVGIYFCAGFLDSNYQLIWGAGTKLIIKP
Vbeta: EAQVTQNPRYLITVTGKKLTVTCSQNMNHEYMSWYRQDPGLGLRQIYYSMNVEVTDKGDVPEGYKVSRKEKRNFPLILESPSPNQTSLYFCASASGYRTDTQYFGPGTRLTVL
[8]
  binding result: recognises
[9]
  binding result: no recognition

B6: 5G6 TCR (TCR, V domains shown)
Valpha: DAKTTQPNSMESNEEEPVHLPCNHSTISGTDYIHWYRQLPSQGPEYVIHGLTSNVNNRMASLAIAEDRKSSTLILHRATLRDAAVYYCILRTSGAGSYQLTFGKGTKLSVIP
Vbeta: SAVISQKPSRDICQRGTSLTIQCQVDSQVTMMFWYRQQPGQSLTLIATANQGSEATYESGFVIDKFPISRPNLTFSTLTVSNMSPEDSSIYLCSAGGAGASDTQYFGPGTRLTVL
[8]
  binding result: recognises

B7: 1E4 TCR (TCR, V domains shown)
Valpha: KQEVTQIPAALSVPEGENLVLNCSFTDSAIYNLQWFRQDPGKGLTSLLLIQSSQREQTSGRLNASLDKSSGRSTLYIAASQPGDSATYLCAVSTAYSGGGADGLTFGKGTHLIIQP
Vbeta: DTGVSQNPRHKITKRGQNVTFRCDPISEHNRLYWYRQTLGQGPEFLTYFQNEAQLEKSRLLSDRFSAERPKGSFSTLEIQRTEQGDSAMYLCASSPPTVRVYGYTFGSGTRLTVV
[10]
  binding result: recognises
[11]
  binding result: no recognition

B8: 2B8 TCR (TCR, V domains shown)
Valpha: GQQVMQIPQYQHVQEGEDFTTYCNSSTTLSNIQWYKQRPGGHPVFLIQLVKSGEVKKQKRLTFQFGEAKKNSSLHITATQTTDVGTYFCADPNFGNEKLTFGTGTRLTIIP
Vbeta: EAQVTQNPRYLITVTGKKLTVTCSQNMNHEYMSWYRQDPGLGLRQIYYSMNVEVTDKGDVPEGYKVSRKEKRNFPLILESPSPNQTSLYFCASSLNPFATNEKLFFGSGTQLSVL
[12]
  binding result: recognises
